The record followed here is patent US20030228627, “Assay for p53 function in cells” (published 2003).

The target in data set [1] is T1, p53 (full-length, Flag-tagged) (Homo sapiens, UniProt P04637 P04637:1-393). Description: footprint; DNase I footprinting on p21 promoter as chromatin or naked DNA; described as p53 3' binding site, outcome not shown in the text. The following applies: tags: Flag, expressed in Sf9 cells.
Data set [2] concerns the target T1, p53 (full-length, Flag-tagged). Description: EMSA; p53 with or without acetylation by p300; site described as p53 5' binding site, gel outcome not shown in the text. The settings on record: tags: Flag, expressed in Sf9 cells; label: 32P end label.

B1: p21 promoter p53 3' site (dsDNA)
DNA 1: AGACTGGGCATGTCTGGGCA
DNA 2: TGCCCAGACATGCCCAGTCT
For B1, in data set [1], the binding result is reported as “binds”.

B2: p21 promoter p53 5' site 25 bp oligonucleotide (dsDNA)
DNA 1: CAGGAACATGTCCCAACATGTTGAA
DNA 2: TTCAACATGTTGGGACATGTTCCTG
For the molecule B2, in data set [2], the binding result is recorded as “binds”.
